Test results published in article PMC6362308.

Target: taxol-stabilized microtubules
Experiment: co-sedimentation; 0.1 uM recombinant RECQL4 with or without 2 uM taxol-stabilized microtubules, 15 min, 20,000 g for 10 min at RT; supernatant and pellet analysed by Coomassie staining and Western blot against His6-tag (Fig 1B)

Sequence of taxol-stabilized microtubules (P68363 whole entry, chain 1 of 2): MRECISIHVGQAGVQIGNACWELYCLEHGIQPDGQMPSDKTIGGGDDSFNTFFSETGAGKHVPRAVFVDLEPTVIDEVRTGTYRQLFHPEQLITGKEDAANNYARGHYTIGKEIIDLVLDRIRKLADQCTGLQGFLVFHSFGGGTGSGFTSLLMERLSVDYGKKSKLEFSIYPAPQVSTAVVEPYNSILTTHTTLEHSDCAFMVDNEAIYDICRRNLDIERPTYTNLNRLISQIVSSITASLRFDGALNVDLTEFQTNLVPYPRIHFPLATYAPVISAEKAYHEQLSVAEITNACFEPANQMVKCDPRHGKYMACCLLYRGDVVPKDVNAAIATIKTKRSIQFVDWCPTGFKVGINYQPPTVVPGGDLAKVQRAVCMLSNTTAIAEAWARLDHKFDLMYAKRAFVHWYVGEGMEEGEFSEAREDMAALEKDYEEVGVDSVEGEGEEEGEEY
Sequence of taxol-stabilized microtubules (A8K068 whole entry, chain 2 of 2, further chain): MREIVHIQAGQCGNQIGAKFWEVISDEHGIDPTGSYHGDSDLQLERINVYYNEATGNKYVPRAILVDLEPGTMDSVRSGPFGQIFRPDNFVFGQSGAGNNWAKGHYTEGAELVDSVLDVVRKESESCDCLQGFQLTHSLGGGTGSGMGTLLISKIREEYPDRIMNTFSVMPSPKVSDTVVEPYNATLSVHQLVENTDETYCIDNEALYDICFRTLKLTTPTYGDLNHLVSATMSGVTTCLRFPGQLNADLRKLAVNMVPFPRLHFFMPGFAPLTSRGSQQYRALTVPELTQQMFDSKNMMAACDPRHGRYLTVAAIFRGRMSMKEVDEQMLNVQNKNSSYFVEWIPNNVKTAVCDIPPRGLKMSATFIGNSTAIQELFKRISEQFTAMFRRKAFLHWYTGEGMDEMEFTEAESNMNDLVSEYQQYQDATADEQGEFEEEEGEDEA

- percent of the protein in the pellet: 100%
Substance: Recombinant Xenopus RECQL4 expressed in insect cells (natural protein)
